Earlier results, collected in PMC3563353.

MC1R, sequence (Q01726 whole entry): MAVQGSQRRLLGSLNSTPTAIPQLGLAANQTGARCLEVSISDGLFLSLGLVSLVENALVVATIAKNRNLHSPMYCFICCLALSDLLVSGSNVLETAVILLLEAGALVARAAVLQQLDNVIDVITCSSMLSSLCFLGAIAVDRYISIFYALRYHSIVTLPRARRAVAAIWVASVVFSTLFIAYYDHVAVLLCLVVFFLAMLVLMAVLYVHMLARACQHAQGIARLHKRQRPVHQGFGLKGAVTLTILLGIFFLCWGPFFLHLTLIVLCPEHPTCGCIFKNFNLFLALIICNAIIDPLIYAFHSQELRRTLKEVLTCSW
MC5R, sequence (P33032 whole entry): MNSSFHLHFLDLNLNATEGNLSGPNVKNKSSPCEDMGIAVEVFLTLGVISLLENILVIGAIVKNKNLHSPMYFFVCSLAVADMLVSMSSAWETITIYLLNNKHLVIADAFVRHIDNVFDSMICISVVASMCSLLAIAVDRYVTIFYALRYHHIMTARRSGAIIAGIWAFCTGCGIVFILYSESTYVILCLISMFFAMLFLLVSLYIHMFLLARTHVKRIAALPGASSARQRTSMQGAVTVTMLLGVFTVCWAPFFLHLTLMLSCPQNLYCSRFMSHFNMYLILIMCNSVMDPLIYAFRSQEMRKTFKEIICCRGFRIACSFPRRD
MC4R, sequence (P32245 whole entry): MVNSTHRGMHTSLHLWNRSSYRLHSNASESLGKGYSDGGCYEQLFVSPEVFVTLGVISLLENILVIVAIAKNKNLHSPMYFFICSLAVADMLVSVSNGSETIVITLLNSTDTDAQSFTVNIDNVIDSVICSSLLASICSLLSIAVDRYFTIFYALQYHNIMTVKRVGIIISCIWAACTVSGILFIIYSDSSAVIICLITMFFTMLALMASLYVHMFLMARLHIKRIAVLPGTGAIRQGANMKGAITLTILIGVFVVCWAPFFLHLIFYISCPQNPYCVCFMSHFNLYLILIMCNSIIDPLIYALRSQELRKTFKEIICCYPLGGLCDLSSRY

Target: 4-phenylbutyryl-His-DPhe-Arg-Trp-Gly-Lys
Experiment: competition binding
In the case of MC1R (from UniProt Q01726), the Ki is given as 0.24 nM. For MC4R (from UniProt P32245), the Ki is given as 254 nM. For MC5R (from UniProt P33032), the Ki is listed as 46 nM.
